How the values were obtained:
[1] = biological target: Native bovine (β, γ)-actin, P60712;P63258; assay: TIRFM (KD calculated from koff and kon)
[2] = biological target: Native bovine (β, γ)-actin, P60712;P63258; assay: TIRFM single-filament re-growth assay after CP washout (mono-exponential fit); details: Cy5-UTRN261N (10 nM), profilin-actin (2 μM), myotrophin/V1 (20 nM) after CP washout
[3] = biological target: Native bovine (β, γ)-actin, P60712;P63258; assay: single molecule TIRFM assay (linear fit of kobs against CP concentration); details: Cy5-UTRN261N (10 nM), profilin-actin (2 μM), TMR-CP
Actin (Homo sapiens) = Actin (Homo sapiens) (UniProt P60709); details: cited from earlier work

| Substance | Kd [1] [nM] | koff [2] [s^-1·10^-3] | kon [3] [M⁻¹ s⁻¹] | Kd (Actin (Homo sapiens)) [nM] |
| --- | --- | --- | --- | --- |
| Murine heterodimeric capping protein (α1, β2), wildtype (from UniProt P47753;P47757-2) αY277V | 0.3 | 2.6 | 8.68e+06 | – |
| Profilin (from UniProt P07737) | – | – | – | 19 |
